T1: recombinant CAL1(1-160) (Drosophila melanogaster, UniProt Q9VEN2 1-160)
T1 construct: CAL1, residues 1-160; the vector name points to a 3C protease site; monomer by SEC-MALS; also called monomeric N-terminal fragment of CAL1; source: recombinant, T7-promoter vector pEC-K-3C-His-GST
T1 sequence (looked up): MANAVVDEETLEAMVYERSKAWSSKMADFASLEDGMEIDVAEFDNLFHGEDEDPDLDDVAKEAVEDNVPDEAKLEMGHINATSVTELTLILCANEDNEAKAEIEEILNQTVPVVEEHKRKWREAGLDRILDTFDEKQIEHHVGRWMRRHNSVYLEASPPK

B1: recombinant dCENP-A(101-225) (domain or fragment, Drosophila melanogaster, UniProt Q9V6Q2 101-225, looked up)
chain: QQESKTRAAGPVAAQNQTRRRKAANPMSRAKRMDREIRRLQHHPGTLIPKLPFSRLVREFIVKYSDDEPLRVTEGALLAMQESCEMYLTQRLADSYMLTKHRNRVTLEVRDMALMAYICDRGRQF
notes: also called dCENP-A lacking the N-terminal tail; source: recombinant, T7-promoter vector pET3a
B2: CAL1-V5 (natural protein, Drosophila melanogaster, UniProt Q9VEN2 1-979, looked up)
chain: MANAVVDEETLEAMVYERSKAWSSKMADFASLEDGMEIDVAEFDNLFHGEDEDPDLDDVAKEAVEDNVPDEAKLEMGHINATSVTELTLILCANEDNEAKAEIEEILNQTVPVVEEHKRKWREAGLDRILDTFDEKQIEHHVGRWMRRHNSVYLEASPPKYLPPHHNSISDESDESMHSIDTARYIQQSRRRNAHMTNKNMTTIKMYRKHSHKRDELRAKYAYGDEQEHRHHMQAVLLRRRERERQLAYLASTPMQCVYSSGHHMRRKNLRKRRINSWMFDSASSSEEDTSFGGCDCHSCRRHYALSRSVYQSCPYGRGQREYHHRQMASRTMHTMRRQHTFDMEMDLRPRLPENECSCCNSDRLCSNVIHIANSSTEEWVVENRSNHLTQETQEKTRKQKHQPMDARKVSHQPVCSKGHEQKPLSSKATSVSKLVLSKEKYMQMFDSESSDEDNALAKKGLLCCSDKKKGMTFPTPNAAGKITHPTSSAKKAIRKEARPNGLAQIQEEGPTATNSPIESTYLPVAHMKSVSIDGSSGTSATFESPAKKAPKRGIRETSPLNGNELQQLISTIPIADEKASSLMEKVDNCIGRESFDDRNKDFMHMENSSTKTAVEKSTKQKRVSGKKSEIPKSIITNNEILEKNSTETLSEKQVAAKAKKQSVRKTGATGKPSTSRLKKSEKTKTTSSVTSTSKLEQVREEESDVSSEVLAKPKPQCSTTASILKQGGDGASNSEDDLQIALAMSKATYKEEQQKRKKTKREPSNKQPQSPAEKSMTVFNNQSVACNSTALANDTACYRVLPKRRGVKRAAAVSTTEEKTATNSSSSPTSSLEEMGSPTGGDPDCTVVTSTTGCEPPASERQEIPATIKITKRGILLHSPSAPEGASFTLTEQGLGKIIGERWARKYLKYHIGSRSFDSRHSVYYQPTPQLAAALSAPQDAQNIGNISGSSASDDDIFEQINRYGTVYSILENNSGDK
notes: CAL1, Drosophila dCENP-A-specific chaperone; also called V5-tagged CAL1; source: U2OS-LacO cells, transiently transfected, in cells; not shown: V5, C-terminal, kept
B3: recombinant His-dCENP-C(1264-1411) (domain or fragment, Drosophila melanogaster, UniProt Q9VHP9 1264-1411, looked up)
chain: GPVVFSTPLRDEQEEASTKLMQWLRGVGDAPPSASMSDENASVSSANELIFCQVDGIDYAFYNTKEKAMLGYMRFKPYQKRSMKQAKVHPLKLLVQFGEFNVETLAVGEEKEVHSVLRVGDMIEIDRGTRYSIQNAIDKVSVLMCIRS
notes: dimer by SEC-MALS; source: recombinant, T7-promoter vector; not shown: His, N-terminal, kept
B4: recombinant CAL1(841-979) (domain or fragment, Drosophila melanogaster, UniProt Q9VEN2 841-979, looked up)
chain: GGDPDCTVVTSTTGCEPPASERQEIPATIKITKRGILLHSPSAPEGASFTLTEQGLGKIIGERWARKYLKYHIGSRSFDSRHSVYYQPTPQLAAALSAPQDAQNIGNISGSSASDDDIFEQINRYGTVYSILENNSGDK
notes: also called CAL1 monomer fragment; source: recombinant, vector pEC-K-3C-His-GST

Experiments:
[1] = target: T1, recombinant CAL1(1-160); experiment: SEC-MALS; recombinant proteins; Superdex 200 10/300 Increase GL, 50 mM HEPES pH 8.0, 150 or 300 mM NaCl, 1 mM TCEP, 22°C, 100 μl of 1-5 mg/ml; details: both partners purified
[2] = target: T2, recombinant dH4 (Drosophila melanogaster, UniProt P84040 1-103); experiment: as above; details: both partners purified
T2 construct: Drosophila histone H4 (dH4); source: recombinant, T7-promoter vector pET3a (from Karolin Luger)

[3] = target: T3, dCENP-A^C-GFP-LacI (Drosophila melanogaster, UniProt Q9V6Q2 1-202; P02299 116-136); experiment: LacI/LacO tethering and recruitment assay (immunofluorescence); bait fused to GFP-LacI tethered to chromosomal LacO arrays in human U2OS cells; HA- or V5-tagged prey transiently co-expressed; IF 48 h after transfection, prey intensity at the LacO spot or % of cells; no third Drosophila centromere protein co-expressed; details: partners not purified
T3 construct: Drosophila CENP-A, N, L1 and α2 domains, residues 1-202; Drosophila histone H3, C region, residues 116-136; also called dCENP-A^C chimera; source: U2OS-LacO cells, transiently transfected, in cells; not shown: GFP-LacI (LacI lacking 11 C-terminal amino acids), C-terminal, kept
T3 sequence (Q9V6Q2 other isoform, or with tags, fused parts or gaps): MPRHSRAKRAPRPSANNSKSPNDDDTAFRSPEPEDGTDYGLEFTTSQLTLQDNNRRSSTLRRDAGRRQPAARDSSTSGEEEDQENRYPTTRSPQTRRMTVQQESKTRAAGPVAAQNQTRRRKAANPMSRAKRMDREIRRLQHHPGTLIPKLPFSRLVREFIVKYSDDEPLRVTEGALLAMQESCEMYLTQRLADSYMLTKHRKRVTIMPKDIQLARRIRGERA

[4] = target: the molecule itself; experiment: SEC-MALS; recombinant proteins; Superdex 200 10/300 Increase GL, 50 mM HEPES pH 8.0, 150 or 300 mM NaCl, 1 mM TCEP, 22°C, 100 μl of 1-5 mg/ml
[5] = target: B3; experiment: as above; details: both partners purified
[6] = target: B3; experiment: mass spectrometry (iBAQ peptide intensities) of the complex; ratio of iBAQ intensities of the two fragments within the recombinant His-dCENP-C(1264-1411)/CAL1(841-979) complex; details: both partners purified

Binder: B1
- binding result [1]: binds
- binding result [2]: binds

Binder: B2
- CAL1 recruitment relative to wild-type dCENP-A [3]: 60%

Binder: B3
- stoichiometry N [4]: 2

Binder: B4
- stoichiometry N [5]: 0.5 CAL1 chains per dCENP-C chain
- stoichiometry N [6]: ~0.5 CAL1 chains per dCENP-C chain
